{"source": "paper PMC10477112", "about": "“APP-BACE1 Interaction and Intracellular Localization Regulate Aβ Production in iPSC-Derived Cortical Neurons” (Cellular and Molecular Neurobiology, 2023)", "target": "T1, APP-derived C-terminal fragment (APP-CTF) (human (endogenous in iPSC-derived NPCs …, UniProt P05067 672-770))", "T1 construct": "also called C-terminal APP; C-termAPP; source: endogenous, human iPSC-derived NPCs and cortical neurons, fixed cells", "assay": "proximity ligation; DuoLink PLA on fixed (4% PFA), permeabilised human iPSC-derived NPCs (day 45) and neurons (day 75); primary antibodies against APP (N-terminal or C-terminal), BACE1 and PSEN1; proximity of maximum 40 nm; PLA dot area divided by nuclear area", "settings": "partners not purified"}
{"binder": "BACE1 (beta-secretase) (enzyme, UniProt P56817 46-501, looked up, BACE1, human, endogenous; also called β-secretase; source: endogenous, human iPSC-derived NPCs and cortical neurons, fixed cells; endogenous, SH-SY5Y cells, fixed) ETDEEPEEPGRRGSFVEMVDNLRGKSGQGYYVEMTVGSPPQTLNILVDTGSSNFAVGAAPHPFLHRYYQRQLSSTYRDLRKGVYVPYTQGKWEGELGTDLVSIPHGPNVTVRANIAAITESDKFFINGSNWEGILGLAYAEIARPDDSLEPFFDSLVKQTHVPNLFSLQLCGAGFPLNQSEVLASVGGSMIIGGIDHSLYTGSLWYTPIRREWYYEVIIVRVEINGQDLKMDCKEYNYDKSIVDSGTTNLRLPKKVFEAAVKSIKAASSTEKFPDGFWLGEQLVCWQAGTTPWNIFPVISLYLMGEVTNQSFRITILPQQYLRPVEDVATSQDDCYKFAISQSSTGTVMGAVIMEGFYVVFDRARKRIGFAVSACHVHDEFRTAAVEGPFVTLDMEDCGYNIPQTDESTLMTIAYVMAAICALFMLPLCLMVCQWRCLRCLRQQHDDFADDISLLK", "values": [{"measurement": "fold PLA colocalization against flAPP/BACE1 in NPCs (calculated)", "value": "≥ 6.7", "unit": "times"}]}
